According to patent US8440629B2:
Each block holds one substance with its values, some of them ahead of it.

Assays:
[1] = molecular target: VLDLR CR78 (human) (UniProt P98155); assay: solid-phase binding assay, immobilised CR protein, anti-RAP detection
[2] = molecular target: LRP6 CR12 (human) (UniProt O75581); assay: as above
[3] = molecular target: VLDLR CR6-8 (human) (UniProt P98155); assay: as above
[4] = molecular target: LRP6 CR1-3 (human) (UniProt O75581); assay: as above
[5] = molecular target: LRP6 CR23 (human) (UniProt O75581); assay: as above
[6] = molecular target: full-length LRP1 expressed on CHO-K1 cells
[7] = molecular target: recombinant mouse VLDLR ectodomain (mouse) (UniProt P98156); assay: solid-phase binding assay, immobilised receptor, streptavidin-HRP detection, EDTA-corrected

binding as percent of that for LRP1 CR3-5 [1]: < 5%
binding as percent of that for LRP1 CR3-5 [2]: < 5%
Kd [3]: > 300 nM
binding as percent of that for LRP1 CR3-5 [4]: < 5%
binding as percent of that for LRP1 CR3-5 [5]: < 5%
Substance: RAP d3 (ligand)

Substance: mRAPc combined with streptavidin-saporin conjugate
viable cell number (MTT assay, 48 hours) [6]: 40%

Kd [7]: 1 nM
Substance: tag-free RAP d3 peptide linked to maleimide-PEO2-biotin (ligand)
